# In patent publication US20230220080A1 (EPIMAB BIOTHERAPEUTICS, published 2023):
# Experiments:
# [1] = biological target: T1, c-Met, recombinant protein (human, UniProt P08581 25-932, limits assumed); experiment: SPR
# T1 construct: also called human cMet; cMet-his
# [2] = biological target: membrane EGFR on cells (human, UniProt P00533 25-1210); experiment: cell-based or functional assay
# [3] = biological target: Cyno cMet (cynomolgus, UniProt A0A2K5UM36 25-932); experiment: protein based binding; method not stated
# Sequence of Cyno cMet (A0A2K5UM36 entry or part of it limits assumed): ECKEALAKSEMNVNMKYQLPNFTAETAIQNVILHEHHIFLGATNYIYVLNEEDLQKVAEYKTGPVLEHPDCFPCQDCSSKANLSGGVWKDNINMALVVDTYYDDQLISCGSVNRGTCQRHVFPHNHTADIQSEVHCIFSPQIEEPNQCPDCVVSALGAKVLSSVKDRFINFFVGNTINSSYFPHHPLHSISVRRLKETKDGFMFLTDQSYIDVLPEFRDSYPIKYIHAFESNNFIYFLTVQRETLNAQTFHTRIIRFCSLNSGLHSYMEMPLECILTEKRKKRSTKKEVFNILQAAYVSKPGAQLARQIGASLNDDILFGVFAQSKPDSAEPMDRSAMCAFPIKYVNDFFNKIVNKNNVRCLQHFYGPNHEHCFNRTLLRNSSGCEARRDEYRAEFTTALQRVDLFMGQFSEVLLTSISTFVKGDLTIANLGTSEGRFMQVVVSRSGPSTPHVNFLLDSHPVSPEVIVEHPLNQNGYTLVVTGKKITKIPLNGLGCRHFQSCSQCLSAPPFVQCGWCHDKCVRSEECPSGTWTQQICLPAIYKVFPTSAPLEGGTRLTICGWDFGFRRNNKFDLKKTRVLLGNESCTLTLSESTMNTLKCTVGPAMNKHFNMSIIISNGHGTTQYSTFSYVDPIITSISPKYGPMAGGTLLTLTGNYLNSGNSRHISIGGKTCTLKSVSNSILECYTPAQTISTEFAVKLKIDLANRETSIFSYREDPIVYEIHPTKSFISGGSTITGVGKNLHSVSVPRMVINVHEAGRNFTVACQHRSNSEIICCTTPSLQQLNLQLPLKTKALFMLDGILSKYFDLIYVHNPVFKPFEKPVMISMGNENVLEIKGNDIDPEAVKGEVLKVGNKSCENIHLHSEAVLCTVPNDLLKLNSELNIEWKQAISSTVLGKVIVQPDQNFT
# [4] = biological target: T1, c-Met, recombinant protein; experiment: method not stated
# [5] = biological target: T1, c-Met, recombinant protein; experiment: protein based binding; method not stated
# [6] = biological target: T2, human EGFR, recombinant protein (human, UniProt P00533 25-645); experiment: method not stated
# T2 construct: also called hEGFR
# T1 sequence (P08581 25-932 limits assumed): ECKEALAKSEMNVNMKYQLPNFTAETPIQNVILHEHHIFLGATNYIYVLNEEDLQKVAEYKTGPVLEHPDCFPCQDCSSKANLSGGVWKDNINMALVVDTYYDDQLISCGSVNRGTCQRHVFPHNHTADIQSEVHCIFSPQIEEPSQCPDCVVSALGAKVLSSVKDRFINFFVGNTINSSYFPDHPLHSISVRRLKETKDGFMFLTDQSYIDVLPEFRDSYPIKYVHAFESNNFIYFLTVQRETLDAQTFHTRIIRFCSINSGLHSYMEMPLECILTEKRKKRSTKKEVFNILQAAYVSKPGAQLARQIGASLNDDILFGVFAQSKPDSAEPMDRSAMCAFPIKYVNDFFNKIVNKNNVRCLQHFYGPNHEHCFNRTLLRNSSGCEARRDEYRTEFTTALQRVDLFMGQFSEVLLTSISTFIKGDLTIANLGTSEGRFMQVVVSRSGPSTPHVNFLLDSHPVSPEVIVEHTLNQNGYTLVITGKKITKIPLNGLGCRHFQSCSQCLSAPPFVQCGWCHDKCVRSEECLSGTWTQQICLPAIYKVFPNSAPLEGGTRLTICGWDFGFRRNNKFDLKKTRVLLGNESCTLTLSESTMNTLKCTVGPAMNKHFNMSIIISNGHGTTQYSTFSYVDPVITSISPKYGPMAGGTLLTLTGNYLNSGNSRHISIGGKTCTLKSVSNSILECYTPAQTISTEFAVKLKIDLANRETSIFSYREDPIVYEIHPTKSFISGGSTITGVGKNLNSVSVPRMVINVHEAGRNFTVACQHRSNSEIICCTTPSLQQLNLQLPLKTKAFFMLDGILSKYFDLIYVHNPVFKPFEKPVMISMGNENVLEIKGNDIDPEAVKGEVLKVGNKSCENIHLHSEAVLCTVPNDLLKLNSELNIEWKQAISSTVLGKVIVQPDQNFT
Kd [1],"EGFR Depletion (%) on H441 cell, FACS [2]",Kd [3],Kd [4],Kd [5],Kd [6],Binder
2.19 nM,0%,4.53 nM,2.63 nM,1.27 nM,–,"cMet antibody h1332 (13.3.2L-A91T,H-42K,S97T) (antibody, V domains shown, parental mAb; also called mAb-h1332) VH: QVQLVQSGAEVKKPGASVKVSCKASGYTFTSYGFSWVRQAPGQGLEWMGWISASNGNTYYAQKLQGRVTMTTDTSTSTAYMELRSLRSDDTAVYYCARVYADYADYWGQGTLVTVSS VL: DIQMTQSPSSVSASVGDRVTITCRASQGINTWLAWYQQKPGKAPKLLIYAASSLKSGVPSRFSGSGSGTDFTLTISSLQPEDFATYYCQQANSFPLTFGGGTKVEIK"
–,–,–,–,–,1.52 nM,"FIT13a-Ig cMet (h1332)/EGFR (panitumumab) (bispecific antibody, human IgG1, kappa, also called FIT-Ig13a) chain 1: not shown chain 2: QVQLVQSGAEVKKPGASVKVSCKASGYTFTSYGFSWVRQAPGQGLEWMGWISASNGNTYYAQKLQGRVTMTTDTSTSTAYMELRSLRSDDTAVYYCARVYADYADYWGQGTLVTVSSASTKGPSVFPLAPSSKSTSGGTAALGCLVKDYFPEPVTVSWNSGALTSGVHTFPAVLQSSGLYSLSSVVTVPSSSLGTQTYICNVNHKPSNTKVDKKVEPKSC chain 3: not shown"
